Data taken from patent US20040005550A1 (Scripps Research, published 2004).

B1: Purified human fibrinogen (ligand)
chain 1: ADSGEGDFLAEGGGVRGPRVVERHQSACKDSDWPFCSDEDWNYKCPSGCRMKGLIDEVNQDFTNRINKLKNSLFEYQKNNKDSHSLTTNIMEILRGDFSSANNRDNTYNRVSEDLRSRIEVLKRKVIEKVQHIQLLQKNVRAQLVDMKRLEVDIDIKIRSCRGSCSRALAREVDLKDYEDQQKQLEQVIAKDLLPSRDRQHLPLIKMKPVPDLVPGNFKSQLQKVPPEWKALTDMPQMRMELERPGGNEITRGGSTSYGTGSETESPRNPSSAGSWNSGSSGPGSTGNRNPGSSGTGGTATWKPGSSGPGSTGSWNSGSSGTGSTGNQNPGSPRPGSTGTWNPGSSERGSAGHWTSESSVSGSTGQWHSESGSFRPDSPGSGNARPNNPDWGTFEEVSGNVSPGTRREYHTEKLVTSKGDKELRTGKEKVTSGSTTTTRRSCSKTVTKTVIGPDGHKEVTKEVVTSEDGSDCPEAMDLGTLSGIGTLDGFRHRHPDEAAFFDTASTGKTFPGFFSPMLGEFVSETESRGSESGIFTNTKESSSHHPGIAEFPSRGKSSSYSKQFTSSTSYNRGDSTFESKSYKMADEAGSEADHEGTHSTKRGHAKSRPV
chain 2: QGVNDNEEGFFSARGHRPLDKKREEAPSLRPAPPPISGGGYRARPAKAAATQKKVERKAPDAGGCLHADPDLGVLCPTGCQLQEALLQQERPIRNSVDELNNNVEAVSQTSSSSFQYMYLLKDLWQKRQKQVKDNENVVNEYSSELEKHQLYIDETVNSNIPTNLRVLRSILENLRSKIQKLESDVSAQMEYCRTPCTVSCNIPVVSGKECEEIIRKGGETSEMYLIQPDSSVKPYRVYCDMNTENGGWTVIQNRQDGSVDFGRKWDPYKQGFGNVATNTDGKNYCGLPGEYWLGNDKISQLTRMGPTELLIEMEDWKGDKVKAHYGGFTVQNEANKYQISVNKYRGTAGNALMDGASQLMGENRTMTIHNGMFFSTYDRDNDGWLTSDPRKQCSKEDGGGWWYNRCHAANPNGRYYWGGQYTWDMAKHGTDDGVVWMNWKGSWYSMRKMSMKIRPFFPQQ
chain 3: YVATRDNCCILDERFGSYCPTTCGIADFLSTYQTKVDKDLQSLEDILHQVENKTSEVKQLIKAIQLTYNPDESSKPNMIDAATLKSRKMLEEIMKYEASILTHDSSIRYLQEIYNSNNQKIVNLKEKVAQLEAQCQEPCKDTVQIHDITGKDCQDIANKGAKQSGLYFIKPLKANQQFLVYCEIDGSGNGWTVFQKRLDGSVDFKKNWIQYKEGFGHLSPTGTTEFWLGNEKIHLISTQSAIPYALRVELEDWNGRTSTADYAMFKVGPEADKYRLTYAYFAGGDAGDAFDGFDFGDDPSDKFFTSHNGMQFSTWDNDNDKFEGNCAEQDGSGWWMNKCHAGHLNGVYYQGGTYSKASTPNGYDNGIIWATWKTRWYSMKKTTMKIIPFNRLTIGEGQQHHLGGAKQAGDV
notes: also called FITC-fibrinogen
B2: Recombinant penton base from adenovirus type 2 (ligand)
chain: MQRAAMYEEGPPPSYESVVSAAPVAAALGSPFDAPLDPPFVPPRYLRPTGGRNSIRYSELAPLFDTTRVYLVDNKSTDVASLNYQNDHSNFLTTVIQNNDYSPGEASTQTINLDDRSHWGGDLKTILHTNMPNVNEFMFTNKFKARVMVSRSLTKDKQVELKYEWVEFTLPEGNYSETMTIDLMNNAIVEHYLKVGRQNGVLESDIGVKFDTRNFRLGFDPVTGLVMPGVYTNEAFHPDIILLPGCGVDFTHSRLSNLLGIRKRQPFQEGFRITYDDLEGGNIPALLDVDAYQASLKDDTEQGGDGAGGGNNSGSGAEENSNAAAAAMQPVEDMNDHAIRGDTFATRAEEKRAEAEAAAEAAAPAAQPEVEKPQKKPVIKPLTEDSKKRSYNLISNDSTFTQYRSWYLAYNYGDPQTGIRSWTLLCTPDVTCGSEQVYWSLPDMMQDPVTFRSTSQISNFPVVGAELLPVHSKSFYNDQAVYSQLIRQFTSLTHVFNRFPENQILARPPAPTITTVSENVPALTDHGTLPLRNSIGGVQRVTITDARRRTCPYVYKALGIVSPRVLSSRTF
notes: also called Alexa-penton base; aPB

Legend:
[1] = target: T1, human αvβ3 integrin on cells (human, UniProt P06756 31-1048; P05106 27-788); test: flow cytometry binding isotherm, αvβ3-CHO cells, activating antibody AP5
T1 construct: whole, on cells; also called vitronectin receptor; αvβ3-CHO cells
Method: (§1) Typically, cells were cultured overnight in low serum medium (e.g., 0.5% fetal bovine serum), resuspended in incubation buffer at 1-1.5×10⁷ cells/ml, and 4-6×10⁵ cells were incubated with one of these ligands for 30 min at room temperature in a final volume of 50 μl. […] After 30 min at room temperature, cells were washed and incubated with phycoerythrin-streptavidin (1:25 final dilution; Molecular Probes) for 20 min on ice. […] Cells were washed and resuspended in 0.5 ml incubation buffer containing 2 μg/ml propidium iodide (Sigma, St. Louis, Mo.). Ligand binding (FL1 channel) was analyzed immediately on the gated subset of live cells (propidium iodide-negative, FL3) that was strongly positive for αᵥβ₃ expression (FL2). Binding isotherms were subjected to non-linear, least squares regression analysis using an equation for one-site binding (Prism 2.0 software; GraphPad Software, San Diego, Calif.). Two-tailed P values for paired samples were obtained by Student's t test.

[2] = target: T1, human αvβ3 integrin on cells; test: flow cytometry binding isotherm, αvβ3-CHO cells, no treatment
Method: as §1

[3] = target: T1, human αvβ3 integrin on cells; test: flow cytometry, equilibrium binding, unstimulated αvβ3-CHO cells; reference aPB
[4] = target: T2, αIIbβ3 on human platelets (human, UniProt P08514 32-1039; P05106 27-788); test: flow cytometry on human platelets
T2 construct: whole, on cells; also called platelet αIIbβ3

[5] = target: T1, human αvβ3 integrin on cells; test: flow cytometry, JY cells, 100 nM phorbol myristate acetate for 15 min
[6] = target: T1, human αvβ3 integrin on cells; test: cell-based or functional assay

T1 sequence (P06756 31-1048, chain 1 of 2): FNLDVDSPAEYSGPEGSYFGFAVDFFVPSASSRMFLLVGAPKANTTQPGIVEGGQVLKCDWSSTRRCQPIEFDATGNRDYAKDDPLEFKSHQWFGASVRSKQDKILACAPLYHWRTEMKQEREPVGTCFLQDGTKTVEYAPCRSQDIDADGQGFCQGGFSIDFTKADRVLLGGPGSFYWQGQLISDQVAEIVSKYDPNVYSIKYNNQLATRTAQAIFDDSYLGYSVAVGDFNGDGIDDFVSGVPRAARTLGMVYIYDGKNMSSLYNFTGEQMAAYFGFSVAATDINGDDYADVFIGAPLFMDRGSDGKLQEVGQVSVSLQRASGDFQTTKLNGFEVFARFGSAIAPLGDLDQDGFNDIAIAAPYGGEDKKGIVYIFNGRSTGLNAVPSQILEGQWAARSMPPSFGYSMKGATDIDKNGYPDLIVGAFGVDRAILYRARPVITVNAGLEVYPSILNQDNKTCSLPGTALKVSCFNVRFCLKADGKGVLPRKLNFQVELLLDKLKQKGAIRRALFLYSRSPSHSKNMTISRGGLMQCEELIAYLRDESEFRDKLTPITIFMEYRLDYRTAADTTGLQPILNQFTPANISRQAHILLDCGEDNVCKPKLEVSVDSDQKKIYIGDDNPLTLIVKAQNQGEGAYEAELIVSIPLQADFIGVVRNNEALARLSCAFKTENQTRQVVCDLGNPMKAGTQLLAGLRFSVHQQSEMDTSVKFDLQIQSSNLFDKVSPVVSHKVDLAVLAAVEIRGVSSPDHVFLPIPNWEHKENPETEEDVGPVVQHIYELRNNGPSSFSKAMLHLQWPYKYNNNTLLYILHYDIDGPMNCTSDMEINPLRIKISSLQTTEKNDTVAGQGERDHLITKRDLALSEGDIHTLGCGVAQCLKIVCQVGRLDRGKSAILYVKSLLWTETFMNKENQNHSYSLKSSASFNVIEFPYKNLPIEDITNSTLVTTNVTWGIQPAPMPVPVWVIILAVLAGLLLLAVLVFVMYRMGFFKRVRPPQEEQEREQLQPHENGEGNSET
T1 sequence (P05106 27-788, chain 2 of 2): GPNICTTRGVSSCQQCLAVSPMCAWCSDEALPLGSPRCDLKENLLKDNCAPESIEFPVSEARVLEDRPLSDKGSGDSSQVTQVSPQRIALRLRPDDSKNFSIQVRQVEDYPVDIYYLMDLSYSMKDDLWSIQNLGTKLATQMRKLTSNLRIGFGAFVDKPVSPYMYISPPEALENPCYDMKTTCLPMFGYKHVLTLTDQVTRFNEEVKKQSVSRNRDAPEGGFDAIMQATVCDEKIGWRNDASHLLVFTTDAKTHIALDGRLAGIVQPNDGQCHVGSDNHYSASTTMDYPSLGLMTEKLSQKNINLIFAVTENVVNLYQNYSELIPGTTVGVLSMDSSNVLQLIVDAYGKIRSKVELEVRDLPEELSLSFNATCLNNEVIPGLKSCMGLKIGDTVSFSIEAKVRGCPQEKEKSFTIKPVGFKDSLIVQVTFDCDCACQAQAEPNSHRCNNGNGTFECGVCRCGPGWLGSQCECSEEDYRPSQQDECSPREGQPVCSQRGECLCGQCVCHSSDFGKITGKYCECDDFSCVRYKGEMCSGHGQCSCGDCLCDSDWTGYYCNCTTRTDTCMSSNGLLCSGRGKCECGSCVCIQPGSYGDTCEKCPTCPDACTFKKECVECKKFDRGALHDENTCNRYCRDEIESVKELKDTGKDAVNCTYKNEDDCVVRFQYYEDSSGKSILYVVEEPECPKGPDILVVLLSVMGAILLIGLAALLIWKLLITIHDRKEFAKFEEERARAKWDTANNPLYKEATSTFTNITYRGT
T2 sequence (P08514 32-1039, chain 1 of 2): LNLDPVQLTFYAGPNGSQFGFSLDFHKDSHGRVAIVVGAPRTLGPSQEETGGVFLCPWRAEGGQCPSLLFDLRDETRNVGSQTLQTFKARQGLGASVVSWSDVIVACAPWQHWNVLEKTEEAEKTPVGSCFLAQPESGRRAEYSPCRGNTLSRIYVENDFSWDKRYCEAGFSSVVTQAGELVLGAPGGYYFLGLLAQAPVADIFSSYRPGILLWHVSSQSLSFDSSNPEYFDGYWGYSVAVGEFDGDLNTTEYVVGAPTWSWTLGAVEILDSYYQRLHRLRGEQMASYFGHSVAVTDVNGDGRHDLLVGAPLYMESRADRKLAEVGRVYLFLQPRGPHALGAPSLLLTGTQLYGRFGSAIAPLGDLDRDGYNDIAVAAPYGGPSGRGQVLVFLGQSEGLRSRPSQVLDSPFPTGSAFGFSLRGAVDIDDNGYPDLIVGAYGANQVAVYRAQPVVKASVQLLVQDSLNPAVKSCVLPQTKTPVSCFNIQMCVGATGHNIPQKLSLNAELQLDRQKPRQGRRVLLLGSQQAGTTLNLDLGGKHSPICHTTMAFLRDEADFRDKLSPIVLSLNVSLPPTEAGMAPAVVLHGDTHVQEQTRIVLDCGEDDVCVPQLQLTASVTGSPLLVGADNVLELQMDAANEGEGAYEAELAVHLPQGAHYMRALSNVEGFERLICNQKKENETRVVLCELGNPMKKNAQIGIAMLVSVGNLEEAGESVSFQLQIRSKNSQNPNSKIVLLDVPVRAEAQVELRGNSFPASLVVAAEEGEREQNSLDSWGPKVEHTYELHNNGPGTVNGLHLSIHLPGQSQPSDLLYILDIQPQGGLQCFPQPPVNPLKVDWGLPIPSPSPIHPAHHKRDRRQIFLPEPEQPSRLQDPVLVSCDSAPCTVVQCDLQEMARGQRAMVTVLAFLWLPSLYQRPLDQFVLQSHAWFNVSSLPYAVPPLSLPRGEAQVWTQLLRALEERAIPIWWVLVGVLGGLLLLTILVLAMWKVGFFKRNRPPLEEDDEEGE
T2 sequence (P05106 27-788, chain 2 of 2): as the sequence (P05106 27-788, chain 2 of 2) above

Binder	Kd [1]	Kd [2]	fold lower affinity/avidity than for aPB [3]	binding result [4]	fold increase in specific binding with phorbol myristate acetate against no agonist [5]	shift of the adhesion dose-response curve with AP5 against no additive [6]
B1	0.566 µM	9.2 µM	~15 fold	–	–	–
B2	0.16 µM	0.55 µM	–	no binding	2.7 fold	7 fold
